Measured values published in the DeepSol protein solubility set.

Test: soluble on expression in E. coli; label from the status in PepcDB or PDB records
In the case of “SFDNLRNELSRPYGILFINNKIFLEFISKSIQRGSRIITVGDYVSRVLEENGIVPFLEVIDGKTKRTITQNRAITRNKEYKVTNEAGKIRFEIFEIMENILKDREGGVVFVDGEEDLLVIPVTLSANHGDIVIYGQPNAGAVVIIVNEMIRWRVRDILEKAIVKE”, the “soluble on expression in E. coli” value is reported as “not soluble”.
For “SFLSEAGARPRAGEISASERRKWVEVFKACDEDNKGYLSREDFKVAIVMLFGYKPSKIEADAVMSSANPDTSGVSLEGFLNVVQRKKEAQLYRNEIRHIFTAFDVHYRGFLTLEDFKRAFSQVAPKLPSRTVLEVFREADQDSDGHVSFRDFEYAMNHGKAK”, the “soluble on expression in E. coli” value was “soluble”.
With “SFYSGLLTEGGRKETDMREAASLRQQRRMKQAVQFIHKDSADLLPLDGLKKLGSSKDMQPHNILQRRLMETNLSKLRSGPRVPWASKTNKLNQAKSEGLKKSEEDDMILVSCQCAGKDVKALVDTGCLYNLISLACVDRLGLKEHVKSHKHEGEKLSLPRHLKVVGQIEHLVITLGSLRLDCPAAVVDDNEKNLSLGLQTLRSLKCIINLDKHRLIMGKTDKEEIPFVETVSLNEDNTSEA” the “soluble on expression in E. coli” value was “soluble”.
With “SGCRCCKIIQSYLFDPVQVPSPGYVNEVNSCKLDEDDTDKLKGKWSSEVLVQKNDPQRQGSKKTESSSRTADPWEPCWPHQGPLPQGDAGGEHHACGVNGIGPAATPQPTGNSSPTQDDRGSWASTANTVPPTQPFLEGGGTRKQDCVLLASEGTQVMRNGDSRAPSEAESFALEVQDHVFQIPAPDYLQHWGPAGDNVDHNEKDCVFKNHTEDESLEGIQPPVGEHGLNTPFSVRRSWDSLNEDVETEVLSICFNEKGPVHAMPVVDSGNRQEDTHGSDGDGDGEIVDEDAAVAEALAALEAATAGEDLDETD” the “soluble on expression in E. coli” value was “soluble”.
With “SGFLEQRLGHCLRQMAEKGLEALLVTHLTNSYYLTGFSGTAATVLITAKRRVLITDSRYTLLAKASVEGFDIIESRTPLKVVAELLEADQIDCLGFEDQVSFSFYQAMQAELSGITLLAQSGFVEHLR” the “soluble on expression in E. coli” value was “not soluble”.
With “SGPLDEYAYSWANHLLANPVNCATLEITLGPAEFLLRSDAQLAIAGGDLNATLDGRPIANWSRFYAKQGQTLRFGLPRNGLRAYLAVQGGFTVSPQLGSVSTHVRQGLGGLTSQGLALQTGDDLVFSAQQIAQKPVQMTFRFRPDYNLPLRLRVIESYQYQAFSPSAMESFYRSEFIVTPNSDRMGYRLQGETISPPDQAILSEGIALGAIQVPPNGQPIILLNDRQTIGGYPKLGCVARIDLPRLAQAKPGHSVRFVAGDLAGLQAVWCQWARFFGY” the “soluble on expression in E. coli” value was “not soluble”.
With “SGRKRFITDSYPVVKKREGPPGHNKGELAPELGEDTQSLSQEETELELLRQFDLAWQYGPCTGITRLQRWHRAEQMGLKPPVEVYQVLKTHPEDSRFQCSLWHLYPL” the “soluble on expression in E. coli” value was “soluble”.
For “SGSNETLPDNFGKGGWKICFKIEPPATLGNGMLKISFHSDYNRKPHPDDIVEETIKDMWKRRKEVNPKMWNALKFRVDSYSTFHAQGASVVKLNLGLTDYASYQGSGSLASPLTFFQSPEEGAPERHLPLSLGNAGIVLTSDNFIILLERSEQVGEGVGRWVLPGGHPEPSHVNIPDSYLTQSYEGTRDMCLTIERELYNSILMEITEEVGLRSSELFTLQLLGMVQRERDKRPVLVGHTRTTLSKSEMEARFCCQRIHTEACRILFCDIRQVETFFQENEQIMPEHRGALQLYFESSVCQQDWKLCKE”, the “soluble on expression in E. coli” value was “soluble”.
For “SGWVWNQFFVLEEYTGTDPLYVGKLHSDMDRGDGSIKYILSGEGAGIVFTIDDTTGDIHAIQRLDREERSQYTLRAQALDRRTGRPMEPESEFIIKIQD”, the “soluble on expression in E. coli” value was “soluble”.
With “SHLVVESFPSYRDVTLFEGKRVSFYKRAQILVADTWSVLEGKGDGCFKDISSITMFADYRLPQVLAHLGALKYSDDLLKKLLKGEMLSYGDRQEVEIRGCSLWCVELIRDCLLELIEQKGEKPNGEINSILLDYYLWDYAHDHREDMKGIPFHRIRCIYY” the “soluble on expression in E. coli” value was “soluble”.
With “SHMAGHQIVHVRGDSETDLEALFNAVMNPKTANVPQTVPMRLRKLPDSFFKPPEPKSHSRQASTDAGTAGALTPQHVRAHSSPASLQLGAVSPGTLTPTGVVSGPAATPTAQHLRQSSFEIPDDV” the “soluble on expression in E. coli” value was “soluble”.
In the case of “SIDEEMQVEAAKALREALQKYDRGRGKWHGTGKSIEPAKLGDEEVWRAELAATEVARDVDLGGRWHPAVVLGVGEQDLSVGVEDGPAKGRVPRSDIKWMKGSFKDNFKLGDVVLVRKADEDWSLRQVPEVQGGFMAMDVNTGRVLAMQGGFSYQDSVFNRATQALRQPGSSFKPFVYAAALDSGYSPATIVVDAPIEVNTPQGLWRPKNASNKFYGPTPLRTGIERSRNLMTIRLAQEVSMPVVAGYAERFGVYDHMGPFLANALGSEETTLYKMVAAYAMFANGGERVEPTLVDRIQDRFGKTIYRHDQRDCVDCLSDRLEPDQAPRIVTNRERVMNAITAYQLTSMMRGVVERGTASGTVKLPVPTAGKTGTTNDAKDVWFIGFTSNIVAGCYIGYDRPQPLGRGASGGGMCGPVFQSFMTEAVKKFGGGPF”, the “soluble on expression in E. coli” value is reported as “not soluble”.
In the case of “SKDPAFTALLTTQLQVQREIVNKHNELRKAVSPPASNMLKMEWSREVTTNAQRWANKCTLQHSDPEDRKTSTRCGENLYMSSDPTSWSSAIQSWYDEILDFVYGVGPKSPNAVVGHYTQLVWYSTYQVGCGIAYCPNQDSLKYYYVCQYCPAGNNMNRKNTPYQQGTPCAGCPDDCDKGLCTNSCQYQDLLSNCDSLKNTAGCEHELLKEKCKATCLCENKIY”, the “soluble on expression in E. coli” value is reported as “soluble”.
In the case of “SKDQHLRGFFSDSTSFNILMDMLFIKGKYKSALQVLIEMKNQDVKFTKDTYVLAFAICYKLNSPESFKICTTLREEALLKGEILSRRASCFAVALALNQNEMAKAVSIFSQIMNPESIACINLNIIIHIQSNMLENLIKTLKNAAEGNLSKFVKRHVFSEEVLAKVREKVKDVPALVAKFDEIYGTLHITGQVTTDSLDAVLCHTPRDRKSHTLLLNKRMVSRRTFQPLSQSLLAE”, the “soluble on expression in E. coli” value is reported as “soluble”.
In the case of “SKRVEVLLTQLPAYNRLKTPYEAELIETAKKMTAPGKGLLAADESTGSCSKRFAGIGLSNTAEHRRQYRALMLECEGFEQYISGVILHDETVYQKAKTGETFPQYLRRRGVVPGIKTDCGLEPLVEGAKGEQMTAGLDGYIKRAKKYYAMGCRFCKWRNVYKIQNGTVSEAVVRFNAETLARYAILSQLCGLVPIVEPEVMIDGTHDIETCQRVSQHVWSEVVSALHRHGVVWEGCLLKPNMVVPGAESGLKGHAEQVAEYTVKTLARVIPPALPGVTFLSGGLSEVMASEYLNAMNNCPLPRPWKLTFSYARALQSSAIKRWGGKESGVEAGRRAFMHRAKMNSLAQLGKYNRADDDKDSQSLYVAGNT”, the “soluble on expression in E. coli” value is reported as “soluble”.
With “SLARKRRSTQRFSTTRKLKKERKIGTGKKEAEPLLPDLAEINAPDLMPTLVLNFDNVLASIAYDPVKGYIVRKRPGVDAFLSTLANFYELVLWSDHPFPFIEDLLRARLEWPISFTLYQENMDRRGSSRYRKIVQKGPFFKATRGVACSSGLSETAETLEEIFDNLERLGRRMDRVLYIDIDGSVLPSTQMRNFIKVTPFHGEAQEMLEDHALPELTDLLIGAAVSAGDVREMLLRYGGGADGNVGKR” the “soluble on expression in E. coli” value was “soluble”.
With “SLCQEKHTHTHSQKHLKAVCNRLSRTIGHLSAIKRMVENDKDCSEILIQLAAVKAEVNNTAKVVLKEHLAHCMVHAIEENDIQSIEELNKAIDMFMK” the “soluble on expression in E. coli” value was “soluble”.
With “SLDEAEMKAVNIHDGIDGTLMILHHRLKAAIRRPKIEIVKDYAKLPLIECYPGKLNQVFMNILANAIDALEEGMGNEEIPPPTGQITIRTEVLDNQWVVIRIADNGPGMKEEVIRRIYDPFFTTKDVGKGTGLGMAISYQIVVDKHGGMLKCRSQPGEGTEFWIQIPVNCALADAAEEG” the “soluble on expression in E. coli” value was “soluble”.
For “SLIKNGELKPGDKLDSVQALAESFQVSRSAVREALSALKAMGLVEMKQGEGTYLKEFELNQISQPLSAALLMKKEDVKQLLEVRKLLEIGVASLAAEKRTEADLERIQDALKEMGSIEADGELGEKADFAFHLALADASQNELLKHLMNHVSSLLLETMRETRKIWLFSKKTSVQRLYEEHERIYNAVAAGNGAQAEAAMLAHLTNVEDVLSGYFEENVQ”, the “soluble on expression in E. coli” value was “soluble”.
With “SLIKQKLKISQNLNSIQIQTIKILSLNQKELTKLILEESENNECLEINSNKIFFETLKTYRFKKVFYKEDDMIKNQHDIALEKTQTNTSLKEHLLLQLRIQRINEDEIKIGEILINNLNSKGFHIINPYDLFKKEEKEKVKKIIELIQKFDPIGICVPNIIESLILQAKHHKLETNIIKILEKAELLEKTQKKLKEELKIRSKEFNTALEIIRQKLNPNPTLEFKDPNDTNFYVDPDILIINHNNKFKIKIKEVNIFKKELKRTSENPQKQKKAKWLIESLRYRDEILAKIGIAIYTLQKEFLRRGFKSLRPMNLSILSEKISVSKSTISRAIKNKYLKCEWGTILIKELFSSVGGAKTNEFSKLSIKITVKKLLEANKKMSDKEISVILKSKGISISRRTVNKYRNELKSEKGRTYYGT” the “soluble on expression in E. coli” value was “not soluble”.
In the case of “SLITVRIGGNEYPLDEVLEDPGRYARHLERAKTIQGFAECGCAEGRPRPKLVIRRHRDIFLLARWPEQAFRHAEGCPFHRKTQTTPGAADSLDAFRMRDGRHDIRLDASLSVSTHTPAKTVQRTPKGQFTKPQRRSAGLLALLEFAWEQAGLNVWPGTGARSWNGCWSQLTAELDDCRINGKDADGLLHVMQRWDPARKSEILAEFEAWQARLSPTAAGNPRGILIGEIESHAATQYGGKVVLRQSTQRFFMSSGLYERLQASFGTALAGIGRAEQRCVAVLLVEKSRSNYLTVVDIGAMLANRQFLPCDSSHEVAMADHLVALRRAFRKPLRHIGRAEVHPDFVLTDVQPETVIEVLGMAGNPAYDARTASKRQHYQTAGVPFLEWDAVATSISSVRVPPAGTRAADAR”, the “soluble on expression in E. coli” value is reported as “soluble”.
With “SLKEVLDEKFPSNNKLEVGLGRDISGDPITVPLNEMPHLLVAGSTGSGKSVCINGIITSILLNAKPHEVKLMLIDPKMVELNVYNGIPHLLIPVVTNPHKAAQALEKIVAEMERRYDLFQHSSTRNIKGYNELIRKQNQELDEKQPELPYIVVIVDELADLMMVAGKEVENAIQRITQMARAAGIHLIVATQRPSV” the “soluble on expression in E. coli” value was “not soluble”.
With “SLKPSRPVETAYLQGQPGTPFPVIRGIGWSEDQGRRPDMEDGMVAISNLAGVANAWLLGIYDGHGGRQMVEMLLQKIHGNVLQHLRSRAIERWQRYRQRAMSRLQDIRRRLDELHFQQQLACRDVRVLMPPTQRLVELLRLGRICEWVLQCEEPSQEGRTETEKSSASKAPTPPSFLTICTEEDVHRALDEAFVQTDVEILQRLTHPSDHKAGCERDARRVESLGGWVFGERVNGMLAIGRAFGDWSLKLPPGKANPPYSPTSGAFDRLLNIFGTSPSHAAEQAAAERKEYVVSNAPDVRSVSLTPERPAQVPGGIRRNSPSSRASESQTAMSGQETGAGRVPGLLVLGCDGLFDVCSDQVVAHLALEFLRQLVAVHPDMSPCEAAKATARMLIEEAIGVRGSTDNVSVMVVLFHSFGFSGRDGVTPSPPTWYAAAAAKFAWLAEGVSRNVFGLPTASPIALPREPEDKTVD” the “soluble on expression in E. coli” value was “not soluble”.
For “SLLPNILLTGTPGVGKTTLGKELASKSGLKYINVGDLAREEQLYDGYDEEYDCPILDEDRVVDELDNQMREGGVIVDYHGCDFFPERWFHIVFVLRTDTNVLYERLETRGYNEKKLTDNIQCEIFQVLYEEATASYKEEIVHQLPSNKPEELENNVDQILKWIEQWIKDHNS”, the “soluble on expression in E. coli” value was “soluble”.
